Target: the molecule itself
Assay: crystal structure

B1: Pseudomonas aeruginosa single-stranded DNA-binding protein (PaSSB) (natural protein, UniProt P40947 1-165, looked up)
chain: MARGVNKVILVGNVGGDPETRYMPNGNAVTNITLATSESWKDKQTGQQQERTEWHRVVFFGRLAEIAGEYLRKGSQVYVEGSLRTRKWQGQDGQDRYTTEIVVDINGNMQLLGGRPSGDDSQRAPREPMQRPQQAPQQQSRPAPQQQPAPQPAQDYDSFDDDIPF
B1 was tested. Which “stoichiometry N” value did it give?
Its value is 4.

— PMC9076272 (RSC Advances, 2019)
